According to PMC10868123:

Molecular target: VPS13C, endogenous in HEK-293 cells [human (endogenous in HEK-293 FT/HEK-293 T)]
Experiment: co-IP (anti-GFP IP, immunoblot quantification)
Conditions: N = 4; parent: 1; read off a plot

| ratio to parent | Substance |
| --- | --- |
| 0.34 | eGFP-Rab10 WT mutant T73A [not stated] / VPS13C, endogenous in HEK-293 cells [human (endogenous in HEK-293 FT/HEK-293 T)] chain 1 T73A |
| 1.3 | eGFP-Rab10 WT mutant T73E [not stated] / VPS13C, endogenous in HEK-293 cells [human (endogenous in HEK-293 FT/HEK-293 T)] chain 1 T73E |
